Laboratory results published in US20090142300A1.

Biological target: T1, wild-type Toll-like receptor 3 (TLR3), homo sapiens (homo sapiens) (UniProt O15455)
T1 sequence: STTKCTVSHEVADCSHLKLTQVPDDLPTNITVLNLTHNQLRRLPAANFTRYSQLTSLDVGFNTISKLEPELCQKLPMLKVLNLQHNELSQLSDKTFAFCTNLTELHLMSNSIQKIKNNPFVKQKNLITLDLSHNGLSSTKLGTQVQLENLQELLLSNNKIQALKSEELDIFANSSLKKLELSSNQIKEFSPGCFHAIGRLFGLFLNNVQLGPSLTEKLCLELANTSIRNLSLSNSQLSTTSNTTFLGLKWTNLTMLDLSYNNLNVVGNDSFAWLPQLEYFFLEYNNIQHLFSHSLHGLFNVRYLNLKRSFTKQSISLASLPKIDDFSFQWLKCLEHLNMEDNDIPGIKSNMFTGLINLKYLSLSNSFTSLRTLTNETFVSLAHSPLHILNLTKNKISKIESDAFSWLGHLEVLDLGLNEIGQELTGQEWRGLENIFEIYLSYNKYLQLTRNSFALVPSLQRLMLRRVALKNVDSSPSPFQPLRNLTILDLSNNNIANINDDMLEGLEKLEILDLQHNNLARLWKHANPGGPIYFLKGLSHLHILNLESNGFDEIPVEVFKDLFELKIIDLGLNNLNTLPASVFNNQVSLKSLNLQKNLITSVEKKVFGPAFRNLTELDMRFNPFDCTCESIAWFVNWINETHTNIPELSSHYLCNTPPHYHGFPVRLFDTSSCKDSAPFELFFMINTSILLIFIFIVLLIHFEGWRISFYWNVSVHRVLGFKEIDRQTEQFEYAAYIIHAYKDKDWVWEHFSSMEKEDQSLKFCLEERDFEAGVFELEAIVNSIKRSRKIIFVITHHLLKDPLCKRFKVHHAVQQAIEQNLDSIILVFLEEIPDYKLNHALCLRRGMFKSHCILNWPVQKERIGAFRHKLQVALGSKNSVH
Test: cell-based or functional assay

wild-type TLR3 activity with the mutant at six molar excess of WT (dominant negative assay) | Substance | also measured
61% | TLR3 mutant C37A (from UniProt O15455 24-904) (receptor) | –
14% | ΔTIR, dominant negative version of TLR3 that lacks the TIR domain (from UniProt O15455 24-753) (receptor) | wild-type TLR3 activity (NF-kB luciferase reporter, poly(I:C) induced) with the mutant at 2-fold molar excess, relative to empty vector: 26%; wild-type TLR3 activity (NF-kB luciferase reporter, poly(I:C) induced) with the mutant at 6-fold molar excess, relative to empty vector: 12%
76% | TLR3 mutant C696A (from UniProt O15455 24-904) (receptor) | –
17% | TLR3 mutant N466A (from UniProt O15455 24-904) (receptor) | –
– | TLR3 mutant E442K (from UniProt O15455 24-904) (receptor) | wild-type TLR3 activity with the mutant at six molar excess to the WT (dominant negative assay): 51%
16% | TLR3 mutant H539E (from UniProt O15455 24-904) (receptor) | –
– | K467EΔTIR, TLR3 mutant K467E lacking the TIR domain (from UniProt O15455 24-753) (receptor) | wild-type TLR3 activity with the mutant at six fold molar excess (dominant negative assay): 27%
